Data reported in PMC4253547 (Leukemia research, 2014).
Positions count from the first letter of the chain named. In names and notes the source's numbering stands. Where no end group is shown, it is not given here.

What was measured:
MLLT3 (Homo sapiens) = MLLT3 (Homo sapiens) (UniProt P42568); settings: cited from earlier work
MBP-AF9 (WT) = molecular target: T1, MBP-AF9 (WT) (UniProt P42568 1-568); experiment: other fluorescence titration
T1 sequence (looked up): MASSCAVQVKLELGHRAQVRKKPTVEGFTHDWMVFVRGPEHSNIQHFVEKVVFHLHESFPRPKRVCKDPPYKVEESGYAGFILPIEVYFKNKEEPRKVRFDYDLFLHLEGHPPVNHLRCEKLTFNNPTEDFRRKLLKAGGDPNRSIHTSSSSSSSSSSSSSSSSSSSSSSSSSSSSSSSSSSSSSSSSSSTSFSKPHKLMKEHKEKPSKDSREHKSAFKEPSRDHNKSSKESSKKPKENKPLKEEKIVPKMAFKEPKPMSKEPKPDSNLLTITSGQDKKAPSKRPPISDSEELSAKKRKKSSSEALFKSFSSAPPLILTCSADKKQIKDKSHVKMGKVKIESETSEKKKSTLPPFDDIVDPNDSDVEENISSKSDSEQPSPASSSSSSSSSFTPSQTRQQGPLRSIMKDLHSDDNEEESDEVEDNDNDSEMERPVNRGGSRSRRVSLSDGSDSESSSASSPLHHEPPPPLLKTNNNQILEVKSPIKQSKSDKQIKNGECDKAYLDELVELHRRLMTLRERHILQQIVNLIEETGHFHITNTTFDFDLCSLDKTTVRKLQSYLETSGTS

MBP-AF9 (D544R) = molecular target: T2, MBP-AF9 (D544R) (UniProt P42568 1-568, D544R); experiment: other fluorescence titration
T2 sequence (looked up): T1 sequence (looked up) with D544R

For AFF1 (from UniProt P51825), the Kd (MLLT3 (Homo sapiens)) is listed as 0.17 nM.

B1: Fluorescein AFF4 (K717D) peptide (peptide)
chain: LIVDIDLNLLTRIP
modifications: also: fluorescein (position not given here)
In the case of B1, the Kd (MBP-AF9 (WT)) is reported as 37.4 nM and the Kd (MBP-AF9 (D544R)) is reported as 0.21 nM.

B2: Fluorescein AFF4 (WT) peptide (peptide)
chain: LIVKIDLNLLTRIP
modifications: also: fluorescein (position not given here)
Work on B2 yielded a Kd (MBP-AF9 (WT)) of 0.2 nM.
